Measurements as given in US20250251406A1.

Key:
[1] = target: IL-17A/A dimer (Homo sapiens (Human)) (UniProt Q16552); assay: Alphascreen (protein-protein interaction assay); inhibition of IL17AA with IL-17RA
[2] = target: IL-17A/F dimer (Homo sapiens (Human)) (UniProt Q16552)
[3] = target: IL-17A/A dimer (Homo sapiens (Human)) (UniProt Q16552)
[4] = target: IL-17F/F dimer (Homo sapiens (Human)) (UniProt Q96PD4); assay: Alphascreen (protein-protein interaction assay); inhibition of IL17FF with IL-17RC
[5] = target: IL-17A/F dimer (Homo sapiens (Human)) (UniProt Q16552); assay: Alphascreen (protein-protein interaction assay); inhibition of IL17AF with IL-17RA

Sequence of UniProt Q96PD4 (Q96PD4 31-163 limits assumed): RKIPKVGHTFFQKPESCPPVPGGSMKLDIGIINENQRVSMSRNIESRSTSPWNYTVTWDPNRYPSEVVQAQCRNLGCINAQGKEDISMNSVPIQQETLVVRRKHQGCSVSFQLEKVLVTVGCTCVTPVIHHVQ

IC50 [1]: 0.039 nM
% inhibition of CCL20 expression (TNF + IL17A/F stimulation) in keratinocytes, SLK 0.1 µg/mL [2]: -75%
% inhibition of CCL20 expression (TNF + IL17A/F stimulation) in keratinocytes, SLK 1 µg/mL [2]: -53%
% inhibition of CXCL8 expression (TNF + IL17A/F stimulation) in keratinocytes, SLK 0.1 µg/mL [2]: -61%
% inhibition of CXCL8 expression (TNF + IL17A/F stimulation) in keratinocytes, SLK 1 µg/mL [2]: -68%
% inhibition of CCL20 expression (TNF + IL17A/A stimulation) in keratinocytes, SLK 0.1 µg/mL [3]: -66%
% inhibition of CCL20 expression (TNF + IL17A/A stimulation) in keratinocytes, SLK 1 µg/mL [3]: -66%
% inhibition of CXCL8 expression (TNF + IL17A/A stimulation) in keratinocytes, SLK 0.1 µg/mL [3]: -73%
% inhibition of CXCL8 expression (TNF + IL17A/A stimulation) in keratinocytes, SLK 1 µg/mL [3]: -88%
IC50 [4]: 0.013 nM
IC50 [5]: 0.066 nM
Substance: sonelokimab (VHH)
